The values that follow come from publication PMC2693874 (2009).

Assay [1] deals with OG488-EGR-labeled fXa-R165A. Nature of the assay: fluorescence polarisation. On the technique in general: In fluorescence polarisation assays a small probe gives low polarisation when free and higher when bound to something large.
The target in assay [2] is OG488-EGR-labeled E2-fXa. Nature of the assay: fluorescence polarisation.
Assay [3] addresses OG488-EGR-labeled fXa-R165A. Nature of the assay: fluorescence polarisation. The source holds these as a separate data set.
Assay [4] deals with OG488-EGR-labeled fXa-des-Gla. Nature of the assay: fluorescence polarisation.
Assay [5] concerns the target OG488-EGR-labeled wild-type factor Xa. As to the kind of experiment: fluorescence polarisation.
The target of assay [6] is T1, factor Va (Homo sapiens, UniProt P12259).
T1 chain 1: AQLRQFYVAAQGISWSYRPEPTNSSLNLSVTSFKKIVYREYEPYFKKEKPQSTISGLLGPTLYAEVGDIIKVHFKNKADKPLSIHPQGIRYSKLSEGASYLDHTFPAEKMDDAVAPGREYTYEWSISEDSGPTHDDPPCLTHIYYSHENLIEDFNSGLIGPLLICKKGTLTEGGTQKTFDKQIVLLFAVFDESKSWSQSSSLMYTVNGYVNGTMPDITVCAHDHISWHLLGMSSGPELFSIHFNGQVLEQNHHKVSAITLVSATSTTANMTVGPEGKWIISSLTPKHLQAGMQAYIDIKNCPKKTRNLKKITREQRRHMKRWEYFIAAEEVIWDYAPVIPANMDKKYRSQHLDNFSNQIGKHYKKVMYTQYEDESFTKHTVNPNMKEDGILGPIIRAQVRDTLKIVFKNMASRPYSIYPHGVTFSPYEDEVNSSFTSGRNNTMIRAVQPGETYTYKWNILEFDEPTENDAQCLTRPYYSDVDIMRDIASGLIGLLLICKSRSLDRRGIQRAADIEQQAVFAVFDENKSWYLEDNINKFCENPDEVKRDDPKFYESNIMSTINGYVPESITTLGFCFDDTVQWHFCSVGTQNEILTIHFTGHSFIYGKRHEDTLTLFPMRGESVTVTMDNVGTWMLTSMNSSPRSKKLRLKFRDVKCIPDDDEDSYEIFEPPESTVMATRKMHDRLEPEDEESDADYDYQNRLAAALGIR
T1 chain 2: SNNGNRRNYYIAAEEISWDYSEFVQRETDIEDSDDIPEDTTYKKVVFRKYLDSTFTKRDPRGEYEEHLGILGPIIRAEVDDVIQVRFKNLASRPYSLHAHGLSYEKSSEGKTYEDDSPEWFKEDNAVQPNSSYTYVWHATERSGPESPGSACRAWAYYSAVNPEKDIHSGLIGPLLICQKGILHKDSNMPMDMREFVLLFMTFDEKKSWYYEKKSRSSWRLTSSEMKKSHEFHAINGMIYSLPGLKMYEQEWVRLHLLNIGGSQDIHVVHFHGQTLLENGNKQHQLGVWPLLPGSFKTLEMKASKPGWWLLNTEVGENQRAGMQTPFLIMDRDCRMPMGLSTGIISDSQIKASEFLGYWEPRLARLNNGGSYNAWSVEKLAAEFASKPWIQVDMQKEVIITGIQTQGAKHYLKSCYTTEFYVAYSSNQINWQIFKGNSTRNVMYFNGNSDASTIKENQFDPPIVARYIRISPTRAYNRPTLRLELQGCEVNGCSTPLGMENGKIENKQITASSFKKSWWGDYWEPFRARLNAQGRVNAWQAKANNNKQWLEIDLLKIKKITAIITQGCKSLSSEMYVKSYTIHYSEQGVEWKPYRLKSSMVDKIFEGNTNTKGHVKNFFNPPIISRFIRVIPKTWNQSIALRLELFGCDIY
Nature of the assay: prothrombinase assay.

Where two headings read alike, the source gives them in different places.

As for “human plasma factor Va (from UniProt P12259 29-737; P12259 1574-2224) (natural protein)”, the Kd – broadly, the constant that tells how readily two partners part at equilibrium – was found to be 10.5 nM in assay [1]; 62 nM in assay [2]; 10.3 nM in assay [3]; 58 nM in assay [4]; 1.5 nM in assay [5].

B1: factor Xa (protein)
chain: IVGGQECKDGECPWQALLINEENEGFCGGTILSEFYILTAAHCLYQAKRFKVRVGDRNTEQEEGGEAVHEVEVVIKHNRFTKETYDFDIAVLRLKTPITFRMNVAPACLPERDWAESTLMTQKTGIVSGFGRTHEKGRQSTRLKMLEVPYVDRNSCKLSSSFIITQNMFCAGYDTKQEDACQGDSGGPHVTRFKDTYFVTGIVSWGEGCARKGKYGIYTKVTAFLKWIDRSMKTRGLPKAKSHAPEVITSSPLK
modifications: PCPS vesicles
In assay [6], B1 showed a dissociation constant Kd of 0.5 nM.
